Source: patent US20210070807A1 (MOREHOUSE SCHOOL OF MEDICINE, published 2021)

Biological target: mortalin (UniProt P38646 47-679)
Test: cell-based or functional assay

Sequence of mortalin (P38646 47-679 limits assumed): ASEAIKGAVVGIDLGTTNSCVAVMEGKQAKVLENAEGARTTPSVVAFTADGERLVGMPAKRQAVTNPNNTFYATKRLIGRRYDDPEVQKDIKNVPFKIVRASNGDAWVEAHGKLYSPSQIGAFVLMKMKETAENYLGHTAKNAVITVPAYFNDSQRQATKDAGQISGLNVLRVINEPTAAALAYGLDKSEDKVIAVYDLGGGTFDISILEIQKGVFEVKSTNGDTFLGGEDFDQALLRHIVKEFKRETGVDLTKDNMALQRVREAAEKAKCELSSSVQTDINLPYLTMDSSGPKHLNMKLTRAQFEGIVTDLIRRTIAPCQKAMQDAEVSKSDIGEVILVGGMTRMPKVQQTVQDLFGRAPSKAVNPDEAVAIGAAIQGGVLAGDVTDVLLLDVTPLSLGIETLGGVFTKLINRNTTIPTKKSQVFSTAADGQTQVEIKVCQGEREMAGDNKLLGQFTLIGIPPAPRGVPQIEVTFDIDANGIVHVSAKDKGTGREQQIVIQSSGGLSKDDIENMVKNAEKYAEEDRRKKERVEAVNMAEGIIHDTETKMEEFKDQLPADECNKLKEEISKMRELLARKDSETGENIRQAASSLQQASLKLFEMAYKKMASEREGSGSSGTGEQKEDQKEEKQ

## VGFPVAAVGFPVGRKKRRQRRRPPQ [SMRwt-CPP peptide]
  IC50 of proliferation, MTT assay, K562 cells, 24 hours: 907 nM/mL
  IC50 of proliferation, MTT assay, MCF-7 cells, 24 hours: 180 nM/mL
  IC50 of proliferation, MTT assay, MDA-MB-231 cells, 24 hours: 476 nM/mL
